The values below come from the supplement of paper PMC12458215.

This series relates to HEK293T. The series can be described thus: plasma membrane surface immunostaining intensity (anti-HA, deep receptor scanning) (arbitrary fluorescence units); higher = higher plasma membrane expression.

± gives the uncertainty stated by the source.

As to “MARPDPSAPPSLLLLLLAQLVGRAAAASKAPVCQEITVPMCRGIGYNLTHMPNQFNHDTQDEAGLEVHQFWPLVEIQCSPDLRFFLCSMYTPICLPDYHKPLPPCRSVCERAKAGCSPLMRQYGFAWPERMSCDRLPVLGRDAEVLCMDYNRSEATTAPPRPFPAKPTLPGPPGAPASGGECPAGGPFVCKCREPFVPILKESHPLYNKVRTGQVPNCAVPCYQPSFSADERTFATFWIGLWSVLCFISTSTTVATFLIDMERFRYPERPIIFLSACYLCVSLGFLVRLVVGHASVACSREHNHIHYETTGPALCTIVFLLVYFFGMASSIWWVILSLTWFLAAGMKWGNEAIAGYAQYFHLAAWLIPSVKSITALALSSVDGDPVAGICYVGNQNLNSLRGFVLGPLVLYLLVGTLFLLAGFVSLFRIRSVIKQGGTKTDKLEKLMIRIGIFTLLYTVPASIVVACYLYEQHYRESWEAALTCACPGHDTGQPRAKPEYWVLMLKYFMCLVVGITSGVWIWSGKTVESWRRFTSRCCCRPRRGHKSGGAMAAGDYPEASAALTGRTGPPGPAATYHKQVSLSHV [FZD5]”, for the setting “GPCR class: F”, the “plasma membrane surface immunostaining intensity” value worked out at 4020 ± 200. For the sequence “MASFSAETNSTDLLSQPWNEPPVILSMVILSLTFLLGLPGNGLVLWVAGLKMQRTVNTIWFLHLTLADLLCCLSLPFSLAHLALQGQWPYGRFLCKLIPSIIVLNMFASVFLLTAISLDRCLVVFKPIWCQNHRNVGMACSICGCIWVVAFVMCIPVFVYREIFTTDNHNRCGYKFGLSSSLDYPDFYGDPLENRSLENIVQPPGEMNDRLDPSSFQTNDHPWTVPTVFQPQTFQRPSADSLPRGSARLTSQNLYSNVFKPADVVSPKIPSGFPIEDHETSPLDNSDAFLSTHLKLFPSASSNSFYESELPQGFQDYYNLGQFTDDDQVPTPLVAITITRLVVGFLLPSVIMIACYSFIVFRMQRGRFAKSQSKTFRVAVVVVAVFLVCWTPYHIFGVLSLLTDPETPLGKTLMSWDHVCIALASANSCFNPFLYALLGKDFRKKARQSIQGILEAAFSEELTRSTHCPSNNVISERNSTTV [C3AR1]”, the “plasma membrane surface immunostaining intensity” value (GPCR class: A) worked out at 327 ± 41. The same measure, in the same setting: the value for “MASLSQLSGHLNYTCGAENSTGASQARPHAYYALSYCALILAIVFGNGLVCMAVLKERALQTTTNYLVVSLAVADLLVATLVMPWVVYLEVTGGVWNFSRICCDVFVTLDVMMCTASILNLCAISIDRYTAVVMPVHYQHGTGQSSCRRVALMITAVWVLAFAVSCPLLFGFNTTGDPTVCSISNPDFVIYSSVVSFYLPFGVTVLVYARIYVVLKQRRRKRILTRQNSQCNSVRPGFPQQTLSPDPAHLELKRYYSICQDTALGGPGFQERGGELKREEKTRNSLSPTIAPKLSLEVRKLSNGRLSTSLKLGPLQPRGVPLREKKATQMVAIVLGAFIVCWLPFFLTHVLNTHCQTCHVSPELYSATTWLGYVNSALNPVIYTTFNIEFRKAFLKILSC [DRD3]” was 3810 ± 240.

Consider “MASPALAAALAVAAAAGPNASGAGERGSGGVANASGASWGPPRGQYSAGAVAGLAAVVGFLIVFTVVGNVLVVIAVLTSRALRAPQNLFLVSLASADILVATLVMPFSLANELMAYWYFGQVWCGVYLALDVLFCTSSIVHLCAISLDRYWSVTQAVEYNLKRTPRRVKATIVAVWLISAVISFPPLVSLYRQPDGAAYPQCGLNDETWYILSSCIGSFFAPCLIMGLVYARIYRVAKLRTRTLSEKRAPVGPDGASPTTENGLGAAAGAGENGHCAPPPADVEPDESSAAAERRRRRGALRRGGRRRAGAEGGAGGADGQGAGPGAAESGALTASRSPGPGGRLSRASSRSVEFFLSRRRRARSSVCRRKVAQAREKRFTFVLAVVMGVFVLCWFPFFFSYSLYGICREACQVPGPLFKFFFWIGYCNSSLNPVIYTVFNQDFRRSFKHILFRRRRRGFRQ [ADRA2C]”, for which the “plasma membrane surface immunostaining intensity” value (GPCR class: A) turned out to be 1030 ± 270.
